Data on one variant can be found in IntAct's records for PubMed 19033529.

B1: Protein phosphatase 2C 16 (Arabidopsis thaliana (Mouse-ear cress)), Q9CAJ0 (parent)
chain: MEEMTPAVAMTLSLAANTMCESSPVEITQLKNVTDAADLLSDSENQSFCNGGTECTMEDVSELEEVGEQDLLKTLSDTRSGSSNVFDEDDVLSVVEDNSAVISEGLLVVDAGSELSLSNTAMEIDNGRVLATAIIVGESSIEQVPTAEVLIAGVNQDTNTSEVVIRLPDENSNHLVKGRSVYELDCIPLWGTVSIQGNRSEMEDAFAVSPHFLKLPIKMLMGDHEGMSPSLTHLTGHFFGVYDGHGGHKVADYCRDRLHFALAEEIERIKDELCKRNTGEGRQVQWDKVFTSCFLTVDGEIEGKIGRAVVGSSDKVLEAVASETVGSTAVVALVCSSHIVVSNCGDSRAVLFRGKEAMPLSVDHKPDREDEYARIENAGGKVIQWQGARVFGVLAMSRSIGDRYLKPYVIPEPEVTFMPRSREDECLILASDGLWDVMNNQEVCEIARRRILMWHKKNGAPPLAERGKGIDPACQAAADYLSMLALQKGSKDNISIIVIDLKAQRKFKTRT
partner: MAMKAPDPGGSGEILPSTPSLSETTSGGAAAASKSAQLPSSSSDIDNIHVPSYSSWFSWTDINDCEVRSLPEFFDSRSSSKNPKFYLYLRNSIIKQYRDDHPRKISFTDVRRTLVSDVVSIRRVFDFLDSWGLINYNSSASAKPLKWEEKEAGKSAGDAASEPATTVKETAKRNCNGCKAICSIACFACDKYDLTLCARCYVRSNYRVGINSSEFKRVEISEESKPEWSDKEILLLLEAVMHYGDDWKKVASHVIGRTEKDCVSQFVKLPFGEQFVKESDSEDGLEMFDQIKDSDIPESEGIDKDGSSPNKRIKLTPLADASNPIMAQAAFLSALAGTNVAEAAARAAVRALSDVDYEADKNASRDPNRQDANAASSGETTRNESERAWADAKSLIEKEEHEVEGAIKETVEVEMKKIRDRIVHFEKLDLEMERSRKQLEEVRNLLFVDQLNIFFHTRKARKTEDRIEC

In this test the parent is B1. The settings on record: with swi3b_arath SWI3B.
G246D: the “effect of a mutation on the interaction” value is recorded as “disrupting interaction”.
